Laboratory results published in patent US20140057332A1, “GLUCO-OLIGOSACCHARIDE OXIDASES FROM ACREMONIUM STRICTUM AND USES THEREOF” (The Governing Council of the University of Toronto, priority 2011, published 2014).
Where a chain is given by its changes, count along the chain named. Names and notes keep the numbering of the source.

Legend:
[1] = Effect of deglycosylation with PNGaseF on enzyme activity; assay type: biochemical; conditions: 10 mM maltose, 15 min at 37° C., duplicate; for Activity, Deglycosylated: deglycosylated with PNGaseF (native conditions); for Activity, Glycosylated: glycosylated enzyme
Procedure: Approximately 2 μg of purified enzyme was treated with PNGaseF (New England Biolabs) using denaturing and native conditions. Samples that were deglycosylated using denaturing conditions were analysed by SDS PAGE, while samples deglycosylated using native conditions were used to evaluate the impact of glycosylation on enzyme activity. The activity of enzymes was measured on 10 mM maltose at 37° C. for 15 min. (Table 7). N-glycosylation was predicted by NetNGlyc (http://www.cbs.dtu.dk/services/NetNGlyc/) while O-glycosylation was predicted by OGPET (http://ogpet.utep.edu/OGPET/).

[2] = Kinetic analyses, all tested substrates; assay type: biochemical; conditions: all tested monosaccharides and oligosaccharides
Procedure: (§1) A chromogenic assay was used to measure hydrogen peroxide production (15). Reactions contained 0.1 mM 4aminoantipyrine (4AA), 1 mM phenol, 0.5 U horseradish peroxidase, 40 mM Tris-HCl (pH 8.0), and different substrates were initiated by adding 0.2 μg of enzymes to the 250 μL reaction mixture. The production of H2O2 was coupled to the oxidation of 4aminoantipyrine by horseradish peroxidase and detected at 500 nm. Reactions were incubated at 37° C. for 15 min to measure the specific activity of GOOX on 10 mM of monosaccharide or 1 mM of oligosaccharide.
(§2) At least 12 substrate concentrations were included to obtain kinetic parameters for each substrate. Initial rates were obtained by measuring reaction products every 30 s for 15 min at 37° C. and pH 8.0, and kinetic parameters were calculated using the Michaelis-Menten equation (GraphPad Prism5 Software).

[3] = Chromogenic H2O2 oxidase assay on mannose
Procedure: as §1
(§3) An additional eight mutations, identified as Y72F, Y72A, E247A, E314A, W351A, N388S, Q353N, Q384A, were created in GOOX-VN to assess the influence of these residues on the substrate selectivity of GOOX-VN. […] The specific activity of each mutant was then measured at 37° C. for 15 min using 10 mM mono-sugars and 1 mM oligosaccharides as performed for Y300A, Y300N, and W351F (Table 11).

[4] = substrate: CC(=O)N[C@H]1C(O)O[C@H](CO)[C@@H](O)[C@@H]1O; assay: purified protein, by the assay type; conditions: other: 37° C., pH 8.0
Procedure: as §1, §2

[5] = substrate: OC1OC[C@@H](O)[C@H](O)[C@H]1O; assay: purified protein, by the assay type; conditions: other: 37° C., pH 8.0
Procedure: as §1, §2

[6] = substrate: OC1OC[C@@H](O[C@@H]2OC[C@@H](O)[C@H](O)[C@H]2O)[C@H](O)[C@H]1O; assay: purified protein, by the assay type; conditions: other: 37° C., pH 8.0
Procedure: as §1, §2

[7] = substrate: OC1OC[C@@H](O[C@@H]2OC[C@@H](O[C@@H]3OC[C@@H](O)[C@H](O)[C@H]3O)[C@H](O)[C@H]2O)[C@H](O)[C@H]1O; assay: purified protein, by the assay type; conditions: other: 37° C., pH 8.0
Procedure: as §1, §2

[8] = substrate: OC[C@H]1OC(O)[C@H](O)[C@@H](O)[C@@H]1O; assay: purified protein, by the assay type; conditions: other: 37° C., pH 8.0
Procedure: as §1, §2

[9] = substrate: OC[C@H]1O[C@@H](O[C@H]2[C@H](O)[C@@H](O)C(O)O[C@@H]2CO)[C@H](O)[C@@H](O)[C@@H]1O; assay: purified protein, by the assay type; conditions: other: 37° C., pH 8.0
Procedure: as §1, §2

[10] = substrate: OC[C@H]1O[C@@H](O[C@H]2[C@H](O)[C@@H](O)[C@H](O[C@H]3[C@H](O)[C@@H](O)C(O)O[C@@H]3CO)O[C@@H]2CO)[C@H](O)[C@@H](O)[C@@H]1O; assay: purified protein, by the assay type; conditions: other: 37° C., pH 8.0
Procedure: as §1, §2

[11] = substrate: OC[C@H]1O[C@H](O[C@H]2[C@H](O)[C@@H](O)C(O)O[C@@H]2CO)[C@H](O)[C@@H](O)[C@@H]1O; assay: purified protein, by the assay type; conditions: other: 37° C., pH 8.0
Procedure: as §1, §2

[12] = Chromogenic H2O2 oxidase assay / kinetic analysis on NAG; conditions: for Specific activity Defined substrate concentration: 10 mM NAG, 37° C., 15 min; for Specific activity From Vmax: substrate NAG
Procedure: as §1, §2

[13] = Chromogenic H2O2 oxidase assay / kinetic analysis on xylose; conditions: for Specific activity Defined substrate concentration: 10 mM xylose, 37° C., 15 min; for Specific activity From Vmax: substrate xylose
Procedure: as §1, §2

[14] = Chromogenic H2O2 oxidase assay / kinetic analysis on glucose; conditions: for Specific activity From Vmax: substrate glucose
Procedure: as §1, §2

[15] = Chromogenic H2O2 oxidase assay / kinetic analysis on maltose; conditions: for Specific activity Defined substrate concentration: 1 mM maltose, 37° C., 15 min; for Specific activity From Vmax: substrate maltose
Procedure: as §1, §2

[16] = Chromogenic H2O2 oxidase assay / kinetic analysis on galactose; conditions: for Specific activity Defined substrate concentration: 10 mM galactose, 37° C., 15 min; for Specific activity From Vmax: substrate galactose
Procedure: as §1, §2

[17] = Chromogenic H2O2 oxidase assay / kinetic analysis on xylobiose; conditions: for Specific activity From Vmax: substrate xylobiose
Procedure: as §1, §2

[18] = Chromogenic H2O2 oxidase assay / kinetic analysis on cellobiose; conditions: for Specific activity From Vmax: substrate cellobiose
[19] = Chromogenic H2O2 oxidase assay / kinetic analysis on xylotriose; conditions: for Specific activity From Vmax: substrate xylotriose
Procedure: as §1, §2

[20] = Chromogenic H2O2 oxidase assay / kinetic analysis on cellotriose; conditions: for Specific activity From Vmax: substrate cellotriose
Procedure: as §1, §2

[21] = substrate: OC[C@H]1OC(O)[C@H](O)[C@@H](O)[C@H]1O; assay: purified protein, by the assay type; conditions: other: 37° C., pH 8.0
Procedure: as §1, §2

[22] = Chromogenic H2O2 oxidase assay on xylohexaose; conditions: 1 mM xylohexaose; 37° C., 15 min
Procedure: as §1, §3

[23] = Chromogenic H2O2 oxidase assay on xylotetraose; conditions: 1 mM xylotetraose; 37° C., 15 min
Procedure: as §1, §3

[24] = Chromogenic H2O2 oxidase assay on xylopentaose; conditions: 1 mM xylopentaose; 37° C., 15 min
Procedure: as §1, §3

[25] = 1 mM cellobiose, 37° C., 15 min
[26] = 1 mM xylotriose, 37° C., 15 min
[27] = 1 mM cellotriose, 37° C., 15 min

B1: Acremonium strictum gluco-oligosaccharide oxidase GOOX-VN variant 2 Y300N, SEQ ID NO. 7 (Sarocladium strictum; A38V/S388N/Y300N) (protein)
chain: NSINACLAAADVEFHEEDSEGWEMDGTAFNLRVDYDPVAIAIPRSTEDIAAAVQCGLDAGVQISAKGGGHSYGSYGFGGEDGHLMLELDRMYRVSVDDDNVATIQGGARLGYTALELLDQGNRALTHGTCPAVGIGGHVLGGGYGFATHTHGLTLDWLVGATVVLADASIVHVSKTENADLFWALRGGGGGFAIVSEFEFNTFEAPEIITTYQVTTTWNRKQHVAGLKALQDWAENTMPRELSMRLEINANALNWEGNYFGNAKDLKKVLQPIMKKAGGKSTISKLVETDWYGQINTYLNGADLNITYNYDVHEYFYANSLTAPRLSDEAISAFVDYKFDNSSVRPGRGWWIQWDFHGGKNSALASHSNDETAYAHRDQLWLWQFYDNIYDYENNTSPYPESGFEFMQGFVATIEDTLPEDRKGKYFNYADTTLDKEEAQKLYWRGNLEKLQAIKAKYDPEDVFGNVVSVEPIA
[1]
  Activity, Deglycosylated: 2.78 nmol/min
  Activity, Glycosylated: 2.6 nmol/min
[2]
  catalytic activity (kcat) relative to GOOX-VN: approximately two times higher
[3]
  activity on mannose (in words): low activity
[3]; 10 mM mannose, 37° C., 15 min
  Specific activity Defined substrate concentration: 0.19 µmol/mg/min
[4]
  Km: 55.95 ± 1.93 mM
[5]
  Km: 32.01 ± 1.67 mM
[6]
  Km: 4.83 ± 0.17 mM
[7]
  Km: 4.32 ± 0.25 mM
[8]
  Km: 3.11 ± 0.12 mM
[9]
  Km: 0.38 ± 0.02 mM
[10]
  Km: 0.44 ± 0.01 mM
[11]
  Km: 19.61 ± 0.66 mM
  kcat: 10.4 ± 0.105 s⁻¹
  kcat/Km: 530 ± 18.3 M⁻¹ s⁻¹
[12]
  Specific activity Defined substrate concentration: 1.5 µmol/mg/min
  Specific activity From Vmax: 11.22 µmol/mg/min
[13]
  Specific activity Defined substrate concentration: 2.32 µmol/mg/min
  Specific activity From Vmax: 11.48 µmol/mg/min
[14]; 10 mM glucose, 37° C., 15 min
  Specific activity Defined substrate concentration: 8.32 µmol/mg/min
[14]
  Specific activity From Vmax: 10.70 µmol/mg/min
[15]
  Specific activity Defined substrate concentration: 0.49 µmol/mg/min
  Specific activity From Vmax: 10.30 µmol/mg/min
[16]
  Specific activity Defined substrate concentration: 0.95 µmol/mg/min
  Specific activity From Vmax: 11.64 µmol/mg/min
[17]; 1 mM xylobiose, 37° C., 15 min
  Specific activity Defined substrate concentration: 1.83 µmol/mg/min
[17]
  Specific activity From Vmax: 11.84 µmol/mg/min
[18]; [25]
  Specific activity Defined substrate concentration: 8.15 µmol/mg/min
[18]
  Specific activity From Vmax: 11.29 µmol/mg/min
[19]; [26]
  Specific activity Defined substrate concentration: 2.00 µmol/mg/min
[19]
  Specific activity From Vmax: 11.85 µmol/mg/min
[20]; [27]
  Specific activity Defined substrate concentration: 6.90 µmol/mg/min
[20]
  Specific activity From Vmax: 9.88 µmol/mg/min

B2: Acremonium strictum gluco-oligosaccharide oxidase GOOX-VN variant 3 W351F, SEQ ID NO. 8 (Sarocladium strictum; A38V/S388N/W351F) (protein)
chain: B1 chain with N300Y, W351F
[1]
  Activity, Deglycosylated: 3.19 nmol/min
  Activity, Glycosylated: 3.13 nmol/min
[6]
  Km: 0.35 ± 0.01 mM
  kcat: 7.96 ± 0.0583 s⁻¹
  kcat/Km: 23000 ± 683 M⁻¹ s⁻¹
[7]
  Km: 0.31 ± 0.01 mM
  kcat: 7.885 ± 0.0717 s⁻¹
  kcat/Km: 25700 ± 867 M⁻¹ s⁻¹
[8]
  Km: 31.05 ± 1.33 mM
[21]
  Km: 36.12 ± 1.30 mM
[9]
  Km: 0.08 ± 0.00 mM
  kcat: 5.74 ± 0.0833 s⁻¹
  kcat/Km: 69000 ± 1000 M⁻¹ s⁻¹
[10]
  Km: 0.11 ± 0.01 mM
  kcat: 5.25 ± 0.107 s⁻¹
  kcat/Km: 47300 ± 4420 M⁻¹ s⁻¹
[11]
  Km: 4.96 ± 0.23 mM
  kcat: 5.38 ± 0.0733 s⁻¹
  kcat/Km: 1080 ± 51.7 M⁻¹ s⁻¹
[12]
  Specific activity Defined substrate concentration: 0.1 µmol/mg/min
  Specific activity From Vmax: 7.71 µmol/mg/min
[13]
  Specific activity Defined substrate concentration: 0.15 µmol/mg/min
  Specific activity From Vmax: 4.57 µmol/mg/min
[14]; 10 mM glucose, 37° C., 15 min
  Specific activity Defined substrate concentration: 1.31 µmol/mg/min
[14]
  Specific activity From Vmax: 5.57 µmol/mg/min
[15]
  Specific activity Defined substrate concentration: 0.84 µmol/mg/min
  Specific activity From Vmax: 5.33 µmol/mg/min
[16]
  Specific activity Defined substrate concentration: 1.30 µmol/mg/min
  Specific activity From Vmax: 6.49 µmol/mg/min
[17]; 1 mM xylobiose, 37° C., 15 min
  Specific activity Defined substrate concentration: 5.93 µmol/mg/min
[17]
  Specific activity From Vmax: 7.88 µmol/mg/min
[18]; [25]
  Specific activity Defined substrate concentration: 5.10 µmol/mg/min
[18]
  Specific activity From Vmax: 5.68 µmol/mg/min
[19]; [26]
  Specific activity Defined substrate concentration: 5.95 µmol/mg/min
[19]
  Specific activity From Vmax: 7.81 µmol/mg/min
[20]; [27]
  Specific activity Defined substrate concentration: 4.62 µmol/mg/min
[20]
  Specific activity From Vmax: 5.20 µmol/mg/min

B3: E247A: GOOX-VN mutant with E247A substitution (protein)
chain: B1 chain with E247A, N300Y
[22]
  Specific Activity of Enzyme Variants: 5.1 µmol/min/mg
[23]
  Specific Activity of Enzyme Variants: 5.3 µmol/min/mg
[24]
  Specific Activity of Enzyme Variants: 5.2 µmol/min/mg
[14]; 10 mM glucose, 37° C., 15 min
  Specific Activity of Enzyme Variants: 0.4 µmol/min/mg
[17]; 1 mM xylobiose, 37° C., 15 min
  Specific Activity of Enzyme Variants: 4.2 µmol/min/mg
[18]; [25]
  Specific Activity of Enzyme Variants: 2.2 µmol/min/mg
[19]; [26]
  Specific Activity of Enzyme Variants: 3.5 µmol/min/mg
[20]; [27]
  Specific Activity of Enzyme Variants: 2.7 µmol/min/mg
